According to patent publication US6858210B1, “Therapeutic and diagnostic domain 1 β2GPI polypeptides and methods of using same” (La Jolla Pharmaceutical Co., priority 1998, dated 2005):

Test system: antiphospholipid antibody in plasma from patient 6501
Experiment: Competitive antibody binding ELISA with patient plasma on β2GPI coated plates
Design: species or system human
Details: plasma patient 6501, 1:200
Description: Nunc Maxisorp microplates (Nalge Nunc International, Denmark) were coated with 100 μL/well of β2GPI at 2.5 μg/mL in PBS, incubated for 2 hours at room temperature, and blocked for 2 hours at room temperature with 250 μl/well of 2% nonfat milk with […] (Sigma Chemical Co.). […] After incubation for one hour at room temperature the plates were washed 5× with TBS. To each well was added 100 μL of alkaline phosphatase-conjugated anti-human IgG, gamma chain specific (Zymed) diluted 1:1000 in 2% nonfat milk with 0.4% Tween-80. After one hour at room temperature the plates were washed 5× with TBS. To each well was added 100 μl PPMP chromogenic substrate solution for color development at room temperature. Optical absorbance per well was determined at A550nm in a commercial microplate reader (Bio-Tek Instruments EL3 11).

B1: 1----: recombinant β2GPI protein with domain 1 only (SEQ ID NO:4 region), His6 tail (protein)
chain: GRTCPKPDDLPFSTVVPLKTFYEPGEEITYSCKPGYVSRGGMRKFICPLTGLWPINTLKCTPRVGHHHHHH
For B1, the “competition for antiphospholipid antibody binding to β2GPI” value was “Competitive binding is also exhibited”.
